Reference: patent US20240084003A1 (SIMCERE ZAIMING PHARMACEUTICAL, published 2024)
Changes are numbered by the printed parent chain.

T1: monkey CD22 protein (ACROBiosystems, SI2-R52Ha) (monkey (rhesus monkey in paragraph 148), UniProt H9G1X2 18-686)
T1 construct: extracellular domain; also called monkey CD22-ECD; monkey CD22-ECD-His
T1 sequence: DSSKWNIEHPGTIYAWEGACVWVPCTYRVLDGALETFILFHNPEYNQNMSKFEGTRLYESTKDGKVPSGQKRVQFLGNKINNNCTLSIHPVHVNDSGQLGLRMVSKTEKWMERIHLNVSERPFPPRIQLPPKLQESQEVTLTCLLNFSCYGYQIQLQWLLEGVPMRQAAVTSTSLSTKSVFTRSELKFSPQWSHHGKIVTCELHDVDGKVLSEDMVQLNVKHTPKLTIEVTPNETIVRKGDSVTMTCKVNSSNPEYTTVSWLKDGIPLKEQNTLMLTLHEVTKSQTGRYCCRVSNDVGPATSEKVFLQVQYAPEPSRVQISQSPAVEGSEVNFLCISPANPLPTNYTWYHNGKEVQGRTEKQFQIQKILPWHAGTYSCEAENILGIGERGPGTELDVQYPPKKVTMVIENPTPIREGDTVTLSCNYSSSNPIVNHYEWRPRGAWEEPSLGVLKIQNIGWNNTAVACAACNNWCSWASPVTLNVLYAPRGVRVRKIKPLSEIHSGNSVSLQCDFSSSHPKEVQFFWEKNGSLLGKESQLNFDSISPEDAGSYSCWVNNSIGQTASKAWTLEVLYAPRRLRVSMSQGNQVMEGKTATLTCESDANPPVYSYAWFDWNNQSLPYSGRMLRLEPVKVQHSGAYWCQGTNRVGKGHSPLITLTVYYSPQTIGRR

T2: monkey CD22 on HEK293T-monkey CD22 cells (monkey)
T2 construct: full-length entry expressed on stably transfected HEK293T cells
T2 chain: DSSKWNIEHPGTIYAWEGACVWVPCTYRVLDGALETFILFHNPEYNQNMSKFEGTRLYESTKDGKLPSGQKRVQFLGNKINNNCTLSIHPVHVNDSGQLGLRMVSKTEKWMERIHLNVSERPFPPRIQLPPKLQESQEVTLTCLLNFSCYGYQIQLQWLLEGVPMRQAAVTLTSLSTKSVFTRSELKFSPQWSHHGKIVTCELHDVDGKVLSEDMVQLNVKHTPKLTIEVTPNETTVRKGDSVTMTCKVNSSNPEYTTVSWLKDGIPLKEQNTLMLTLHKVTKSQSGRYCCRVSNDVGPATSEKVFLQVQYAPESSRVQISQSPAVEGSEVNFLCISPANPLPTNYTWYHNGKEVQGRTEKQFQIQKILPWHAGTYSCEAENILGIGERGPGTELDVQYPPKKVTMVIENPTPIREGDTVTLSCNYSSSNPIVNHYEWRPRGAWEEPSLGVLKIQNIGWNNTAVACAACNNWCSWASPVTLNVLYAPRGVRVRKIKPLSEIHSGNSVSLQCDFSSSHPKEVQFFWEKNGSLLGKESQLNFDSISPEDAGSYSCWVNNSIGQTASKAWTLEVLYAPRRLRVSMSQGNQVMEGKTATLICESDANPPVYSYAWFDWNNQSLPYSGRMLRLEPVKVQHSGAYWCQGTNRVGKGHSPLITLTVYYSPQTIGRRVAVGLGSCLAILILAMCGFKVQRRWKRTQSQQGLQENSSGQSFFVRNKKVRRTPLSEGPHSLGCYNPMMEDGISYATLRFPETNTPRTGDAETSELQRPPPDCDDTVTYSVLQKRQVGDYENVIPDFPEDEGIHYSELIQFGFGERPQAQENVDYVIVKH

B1: F1.224.1 (antibody, human IgG1, kappa, V domains shown)
VH: EVLLHQSGPELVKPGASVKISCKASGYTFTDFNMDWVRQRHGQSLEWIGDVNPNNGGTIYNQKFKGKATLTVDKSSSTVYMDLRSLTSDDTAVYYCVRLGTSDYGEAWFISWGQGTVVTVSA
VL: DIVLTQSPASLAVSLGQRATISCRASQSVSTPRYSFMHWYQQKPGQPPKLLIKYASNLESGFPARFTGSGSGTDFTLNIHPVEEEDTAAYYCQQSWAIPWTFGGGTKLEIKR
notes: Human-murine chimeric IgG1, kappa
B2: F2.205.9 (antibody, human IgG1, lambda, V domains shown)
VH: QVTLKESGPGILQPSQTLSLTCSFSGFSLSTSGMGVGWIRQPSGKGLEWLAHIWWDDDEYYNPALKSRLTISKDTSKNQVFLKIANVDTADTATYYCARISIPYGYYDWFFDVWGTGTTVTVSA
VL: QAVVTQESALTTSPGETVTLTCRSSTGAVTTRNYANWVQEKPDHLFTGLIGGTNNRAPGVPARFSGSLIGDKAALTITGAQTEDEAIYFCALWYSNHFIFGSGTKVTVLG
notes: Human-murine chimeric IgG1, lambda
B3: F2.55.1 (antibody, human IgG1, lambda, V domains shown)
VH: QVTLKESGPGILQPSQTLSLTCSFSGFSLSTFPLGVGWIRQPSGKGLEWLAHVWWNDDDYYNPALKSRLTISKDTSNTRVFLSVASVDTAETATYYCARLNWDRWYFDVWGTGTTVTVSS
VL: QLVLTQSSSASFSLGASAKLTCTLSSQHSAYTVEWYQQQPLKPPKYVMELKKDGSHSTGDGIPDRFSGSSSGADRYLSISNIQPEDEAIYICGVGDTVKEQFVFGGGTKVTVLG
notes: as for B2
B4: F2.70.2 (antibody, human IgG1, lambda, V domains shown)
VH: EVQLVESGGGLVKPGGSLKLSCAASGFTFSDYGMNWFRQAPEKGLEWVAYISRGSHTIYYADTVKGRFTISRDNAKNTLFLQMTSLRSNDTAMYYCVRMAGYYAMDYWGQGTSVTVSS
VL: QLVLTQSSSASFSLGASAKLTCTLSSQHSSYIIEWYQQQPLKPPKYVMELKKDGSHSTGDGIPDRFSGSSSGADRYLSISNIQPEDEAIYICGVGDTIKEQFVYVFGGGTKVTVLG
notes: as for B2
B5: F2.104.10 (antibody, human IgG1, lambda, V domains shown)
VH: B4 VH with L11F, K76E, V114L
VL: B4 VL with L50V, P84S
notes: as for B2
B6: F1.216.2 (antibody, human IgG1, kappa, V domains shown)
VH: QVQLQQSGPEVVRPGASVKISCKASGYAFSSSWMNWMKQRPGKALEWIGRIYPGDGDTNYSGEFKVKATLTADKSSSTAYMQLSSLTSEDSAVYFCAREGSYYSNPWYFDYWGQGTTLTVSS
VL: DVLVTQTPLSLPVSLGDQASISCRSSQSIVQSNGDTYLEWYLQKPGQSPKLLIYKVSNRFSGVPDRFSGSGSGTDFTLKISRVEAEDLGVYYCFQGSHVPFTFGSGTKLEIKR
notes: as for B1
B7: F1.105.11 (antibody, human IgG1, kappa, V domains shown)
VH: EVQLQQSGPVLVKPGASVKMSCKASGYTFSDYFMNWVKQSHGKSLEWIGIINSYSGGTSYNQKFKGKATLTVDKSSSTAYMELNSLTSEDSAVYYCARWMDYWGQGTSVTVSS
VL: DVQITQSPSYLAASPGETITINCRTSESISKHLAWYQEKPGKTNKLLIYSGSTLQSGIPSRFSGSGSGTDFTLTISSLEPEDFAMYYCQQHNEYPWTFGGGTKLEIKR
notes: as for B1
B8: F1.245.2 (antibody, human IgG1, kappa, V domains shown)
VH: EVQLQQSGAELVKPGASVKLSCTGSGFNIKDYYIHWVKQRTEQGLEWMGRIDPEDGETEYAPKFQDEATITSDTSSNTAYLQLSSLTYEDTAVYYCAREAAGYFYRGSSYGYFDVWGTGTTVTVSS
VL: DFQMTQTTSFLSASLGDRVTISCSASQDISNYLNWYQQKPDGTVKLLIYYTSSLHSGVPSRFSGSGSGTDYSLTISNLEPEDIATYYCQQYSMLPYTFGGGTKLEMER
notes: as for B1
B9: F1.200.11 (antibody, human IgG1, kappa, V domains shown)
VH: QNQLVQSGPELKKPGETVKISCKASGYTFTTAGMQWVQKMPGKGFKWIGWINTLSGEPKYAEDFKGRFAFSLETSATTAYLQISNLKNEDTATYFCARAYYSNLYWYFDVWGTGTTVTVSS
VL: DIVMTQSQKFMSTTVGDRVTITCKASQNVVTAVAWYQQKPGQSPKVLIYSASNRYSGVPDRFTGSGSGTDFTLTISNMHSEDLANYFCHQYSSYPFTFGSGTKLEIKR
notes: as for B1
B10: HA22-hIgG1 (antibody, V domains shown)
VH: EVQLVESGGGLVKPGGSLKLSCAASGFAFSIYDMSWVRQTPEKCLEWVAYISSGGGTTYYPDTVKGRFTISRDNAKNTLYLQMSSLKSEDTAMYYCARHSGYGTHWGVLFAYWGQGTLVTVSA
VL: DIQMTQTTSSLSASLGDRVTISCRASQDISNYLNWYQQKPDGTVKLLIYYTSILHSGVPSRFSGSGSGTDYSLTISNLEQEDFATYFCQQGNTLPWTFGCGTKLEIKR
B11: F1.62.10 (antibody, human IgG1, kappa, V domains shown)
VH: QVQLQQSGPELVKPGASVKISCKASGYEFSSIWMNWVKQRPGEGLEWIGRIFPGDGEINYNEKFKGKATLTADRSSTTAYMQLSSLTSEDSAVYFCAGWRIYYGTYGAMDYWGQGTSVTVSS
VL: B10 VL with T7I, S30G, I53R, G68R, E79Q, F83I, C100G
notes: human-murine chimeric IgG1 kappa
B12: HA22-hIgG1 (antibody, V domains shown)
VH: B10 VH
VL: B10 VL
B13: F1.120.15 (antibody, human IgG1, kappa, V domains shown)
VH: QVQLQQSGPELVKPGASVKISCKASGNAFSNSWMNWVKQRPGKGLEWIGRVYSEDGDTQYNGKFRDKATLTADRSTSTAYMQLSSLTSEDSAVYFCARWLIYYGTYGAMDYWGQGTSVTVSS
VL: B10 VL with S30N, Q37H, Y50F, I53R, L54P, H55Y, F83I, C100G
notes: as for B1
B14: F1.17.1 (antibody, human IgG1, kappa, V domains shown)
VH: QVQLKESGPGLVAPSQSLSITCTVSGFSLSRYTVHWVRQPPGKGLEWLGMIWGGGSTDYNSALKSRLSISKDNSKSQVFLKMNSLQTDDTAMYYCARPHDFDAGGFAYWGQGTLVTVSA
VL: QIVLTQSPAILSTSPGEKVTMTCSASSRVNYMYWYQQKPGSSPRLLIYDTSNLASGVPVRFSGSGSGTSYSLTISRMEAEDAATYYCQQWTSYPLTFGAGTKLELKR
notes: as for B1

Assays:
[1] = biological target: T1, monkey CD22 protein (ACROBiosystems, …); experiment: ELISA, monkey CD22-ECD-His coated
Method: In order to detect the binding activity of CD22 human-murine chimeric antibodies to CD22 protein, the purified human CD22-ECD-His protein obtained in Example 2 was diluted with PBS to a final concentration of 2 μg/mL, and then added to 96-well ELISA plate at 100 μl/well. The plate was sealed with plastic film and incubated overnight at 4° C., the plate was washed 2 times with PBS the next day, and then a blocking solution [PBS+2% (w/w) BSA] was added for blocking at room temperature for 2 hours. […] After incubation at 37° C. for 2 hours, the plate was washed 3 times with PBS. HRP (horseradish peroxidase)-labeled secondary antibody (purchased from Sigma, catalog number: A0170) was added, and incubated at 37° C. for 2 hours, and the plate was washed 5 times with PBS. TMB substrate was added at 50 μl/well, and incubated at room temperature for 30 minutes, then a stop solution (1.0 N HCl) was added at 50 μl/well.
In order to detect the species cross-binding activity of the chimeric antibodies, an ELISA plate was coated with commercial murine CD22 protein (ACROBiosystems, catalog number: SI2-M52Ha) and monkey CD22 protein (ACROBiosystems, catalog number: SI2-R52Ha), respectively, and the ELISA detection was performed according to the method in Example 5.1.

[2] = biological target: T2, monkey CD22 on HEK293T-monkey CD22 cells; experiment: FACS, HEK293T-monkey CD22 cells
Method: For suspension cell Raji, the medium supernatant was directly centrifuged and discarded, and the cell pellet was washed 2 times with PBS. After counting the cells in the previous step, the cell pellet was resuspended with [PBS+2% (w/w) BSA] blocking solution to 2×10⁶ cells/ml, and added to a 96-well FACS reaction plate at 50 μl/well, and then the chimeric antibody test sample was added at 50 μl/well, and incubated on ice for 2 hours. The mixture was centrifuged and washed 3 times with PBS buffer, Alexa Flour 488-labeled secondary antibody (purchased from Invitrogen, catalog number: A-11013) was added at 50 μl/well, and incubated on ice for 1 hour. The obtained mixture was centrifuged and washed 5 times with PBS, and FACS (FACS Canto™, purchased from BD Company) was used for detection and result analysis. Data analysis was performed by software (CellQuest) to obtain the mean fluorescence density (MFI)of the cells. And then software (GraphPad Prism8) was used for analysis, data fitting, and EC50 value calculation. […] The same method was used to detect the binding of the chimeric antibodies to endogenous CD22-negative cell MoLT4 cells (purchased from ATCC, CRL-1582) and CHO-K1 cells.
HEK293T-monkey CD22 cells were subjected to FACS detection and data analysis according to the method in Example 5.2.

Binder	EC50 (read off the curve) [1] [nM]	further results
B1	~0.04	–
B2	~0.03	–
B3	~0.1	–
B4	–	binding result [1]: no binding (tested: 100 nM)
B5	–	binding result [1]: no binding (tested: 100 nM)
B6	~0.01	–
B7	~0.1	–
B8	–	binding result [1]: no binding (tested: 100 nM)
B9	~1	–
B10	~0.05	–
B11	–	EC50 [2]: 41.1 nM; Maximum mean fluorescence intensity [2]: 4330 MFI
B12	–	EC50 [2]: 0.91 nM; Maximum mean fluorescence intensity [2]: 17100 MFI
B13	~0.2	–
B14	~0.02	–
